Measurements published in publication doi:10.1101/634915 (bioRxiv, 2019).

Molecular target: RlucII-Rab7A (UniProt P51149 1-207)
Test: FRET or BRET

Sequence of RlucII-Rab7A (P51149 whole entry): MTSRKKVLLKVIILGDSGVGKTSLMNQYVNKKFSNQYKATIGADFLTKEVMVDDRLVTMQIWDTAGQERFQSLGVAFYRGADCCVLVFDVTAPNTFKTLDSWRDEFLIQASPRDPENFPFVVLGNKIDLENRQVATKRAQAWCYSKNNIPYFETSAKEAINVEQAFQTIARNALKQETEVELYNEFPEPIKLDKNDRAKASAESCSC

B1: PLEKHM1-GFP10 (natural protein, UniProt Q9Y4G2 1-1056, looked up)
chain: MLSVVENGLDPQAAIPVIKKKLVGSVKALQKQYVSLDTVVTSEDGDANTMCSALEAVFIHGLHAKHIRAEAGGKRKKSAHQKPLPQPVFWPLLKAVTHKHIISELEHLTFVNTDVGRCRAWLRLALNDGLMECYLKLLLQEQARLHEYYQPTALLRDAEEGEFLLSFLQGLTSLSFELSYKSAILNEWTLTPLALSGLCPLSELDPLSTSGAELQRKESLDSISHSSGSEDIEVHHSGHKIRRNQKLTASSLSLDTASSSQLSCSLNSDSCLLQENGSKSPDHCEEPMSCDSDLGTANAEDSDRSLQEVLLEFSKAQVNSVPTNGLSQETEIPTPQASLSLHGLNTSTYLHCEAPAEPLPAQAASGTQDGVHVQEPRPQAPSPLDLQQPVESTSGQQPSSTVSETAREVGQGNGLQKAQAHDGAGLKLVVSSPTSPKNKSWISEDDFYRPSREQPLESASDHPIASYRGTPGSRPGLHRHFSQEPRKNCSLGALDQACVPSPGRRQAQAAPSQGHKSFRVVHRRQMGLSNPFRGLMKLGTVERRGAMGIWKELFCELSPLEFRLYLSNEEHTCVENCSLLRCESVGPAHSDGRFELVFSGKKLALRASSQDEAEDWLDRVREALQKVRPQQEDEWVNVQYPDQPEEPPEAPQGCLSPSDLLSEPAALQGTQFDWSSAQVPEPDAIKESLLYLYMDRTWMPYIFSLSLEALKCFRIRNNEKMLSDSHGVETIRDILPDTSLGGPSFFKIITAKAVLKLQAGNAEEAALWRDLVRKVLASYLETAEEAVTLGGSLDENCQEVLKFATRENGFLLQYLVAIPMEKGLDSQGCFCAGCSRQIGFSFVRPKLCAFSGLYYCDICHQDDASVIPARIIHNWDLTKRPICRQALKFLTQIRAQPLINLQMVNASLYEHVERMHLIGRRREQLKLLGDYLGLCRSGALKELSKRLNHRNYLLESPHRFSVADLQQIADGVYEGFLKALIEFASQHVYHCDLCTQRGFICQICQHHDIIFPFEFDTTVRCAECKTVFHQSCQAVVKKGCPRCARRRKYQEQNIFA
fold change of BRET50, CLN3-KO against wild-type HeLa cells: 3.5 fold
